In US20230125550A1 (ARCELLX, published 2023):
Substitutions are numbered along the chain they refer to.

B1: SEQ ID NO 824 (designed binder)
chain: MGSWENFKDTLAWIKEYLEALGGSEAELAGFEHRIAIFEHYLQYYKGKGNPEVEALRKEAAAIRDELQAYRHN
B2: SEQ ID NO 826 (designed binder)
chain: MGSWSLFKHRLANIKVYLEALGGSEAELADFETFIAYFEKDLQEYKGKGNPEVEALRKEAAAIRDELQAYRHN
B3: SEQ ID NO 823 (designed binder)
chain: MGSWAYFKGQLAYIKSGLEALGGSEAELAYFELRIAYFEHWLQNYKGKGNPEVEALRKEAAAIRDELQAYRHN
B4: SEQ ID NO 812 (designed binder)
chain: MGSWFEFSNRLYAIWHRLTALGGSEAELAAFEKEIAAFESELQAYKGKGNPEVESLRTQAAFIRILLQAYRHN
B5: SEQ ID NO 814 (designed binder)
chain: B4 chain with S8E, N9D, Y12F, H16T, T19E, T58Q, Q59S, F62S, I65W
B6: SEQ ID NO 813 (designed binder)
chain: B4 chain with N9D, H16E, T19D, T58F, I65Y, L66Q
B7: SEQ ID NO 815 (designed binder)
chain: MGSWHEFSERLFAIWTRLEALGGSEAELAAFEKEIAAFESELQAYKGKGNPEVEALRQSAAFIRVMLQAYRHN
B8: SEQ ID NO 796 (designed binder)
chain: MGSWFEFFERLAAIEDRLWALGGSEAELAAFEKEIAAFESELQAYKGKGNPEVESLRVHAAAIRAFLQAYRHN
B9: SEQ ID NO 791 (designed binder)
chain: B8 chain with F5M, F8N, E9H, A12Q, E15D, D16G, S55M, V58E
B10: SEQ ID NO 807 (designed binder)
chain: MGSWVEFYHRLEAIEQRLMALGGSEAELAAFEKEIAAFESELQAYKGKGNPEVESLREQAAAIRSWLQAYRHN
B11: SEQ ID NO 806 (designed binder)
chain: B10 chain with V5H, Y8W, H9V, Q16S, M19F, E58V, A62H
B12: SEQ ID NO 800 (designed binder)
chain: B8 chain with F5Y, F8V, E9I, A12D, W19F, S55H, A62H, A65V, F66W
B13: SEQ ID NO 803 (designed binder)
chain: B10 chain with V5S, H9Y, E12A, Q16S, M19F, S55R, Q59H, A62H, S65R
B14: SEQ ID NO 797 (designed binder)
chain: B8 chain with F5I, F8K, E9Y, A12D, D16W, W19E, V58I, A65T, F66W
B15: SEQ ID NO 808 (designed binder)
chain: B10 chain with H9E, E12N, Q16Y, M19E, Q59H, A62Y, S65Q
B16: SEQ ID NO 801 (designed binder)
chain: B10 chain with Y8V, H9E, E12D, Q16F, M19F, S55K, E58N, Q59H, A62H
B17: SEQ ID NO 798 (designed binder)
chain: MGSWYEFMYRLDAIEYRLFALGGSEAELAAFEKEIAAFESELQAYKGKGNPEVESLRIHAAMIREWLQAYRHN
B18: SEQ ID NO 799 (designed binder)
chain: B10 chain with Y8V, H9T, Q16D, M19F, S55H, E58A, Q59H, A62H, S65H
B19: SEQ ID NO 804 (designed binder)
chain: B10 chain with V5Y, H9L, E12S, Q16D, M19F, E58V, A62H, S65T
B20: SEQ ID NO 805 (designed binder)
chain: B17 chain with M8Y, Y9D, Y16D, I58D, H59Q, M62Y, E65T
B21: SEQ ID NO 802 (designed binder)
chain: B17 chain with Y5S, M8V, Y9H, Y16V, S55E, I58Y, M62K, E65S
B22: SEQ ID NO 790 (designed binder)
chain: MGSWAEFSDRLNAIDQRLWALGGSEAELAAFEKEIAAFESELQAYKGKGNPEVEILREHAAEIRKFLQAYRHN
B23: SEQ ID NO 837 (designed binder)
chain: MGSWVYFKAHLAFIKWELEALGGSEAELANFESTIAEFEKYLQVYKGKGNPEVEALRKEAAAIRDELQAYRHN
B24: SEQ ID NO 822 (designed binder)
chain: MGSWADFKWTLAYIKHRLEALGGSEAELAFFEMEIAYFEQSLQNYKGKGNPEVEALRKEAAAIRDELQAYRHN
B25: SEQ ID NO 816 (designed binder)
chain: MGSWGEFTVRLYAIDRRLDALGGSEAELAAFEKEIAAFESELQAYKGKGNPEVEELRRFAAIIRAFLQAYRHN
B26: SEQ ID NO 839 (designed binder)
chain: MGSWTLFKWDLAFIKWQLEALGGSEAELAWFEYEIAAFEDSLQNYKGKGNPEVEALRKEAAAIRDELQAYRHN
B27: SEQ ID NO 840 (designed binder)
chain: B26 chain with T5I, W9E, Y33T, E34T, A37N, D40S, S41D, N44K
B28: SEQ ID NO 811 (designed binder)
chain: MGSWHEFYDRLYAIWDRLDALGGSEAELAAFEKEIAAFESELQAYKGKGNPEVEGLRNAAAVIRIFLQAYRHN
B29: SEQ ID NO 809 (designed binder)
chain: B10 chain with E12D, E15F, Q16D, M19D, S55E, E58A, Q59N, A62G
B30: SEQ ID NO 819 (designed binder)
chain: MGSWHHFKYFLADIKSILEALGGSEAELAIFEVQIAYFEDLLQSYKGKGNPEVEALRKEAAAIRDELQAYRHN
B31: SEQ ID NO 821 (designed binder)
chain: MGSWFYFKYELAWIKHWLEALGGSEAELASFETHIAFFEHQLQYYKGKGNPEVEALRKEAAAIRDELQAYRHN
B32: SEQ ID NO 810 (designed binder)
chain: MGSWSEFTDRLFAIEDRLLALGGSEAELAAFEKEIAAFESELQAYKGKGNPEVEDLRMHAASIRLWLQAYRHN
B33: SEQ ID NO 835 (designed binder)
chain: MGSWKLFKYELAWIKWRLEALGGSEAELADFEASIAQFEKYLQTYKGKGNPEVEALRKEAAAIRDELQAYRHN
B34: SEQ ID NO 836 (designed binder)
chain: B33 chain with K5Y, Y9N, A33M, S34V, Q37M, K40D, Y41H, T44E
B35: SEQ ID NO 838 (designed binder)
chain: MGSWMYFKSHLAWIKWELEALGGSEAELAFFEDNIAQFEYWLQLYKGKGNPEVEALRKEAAAIRDELQAYRHN
B36: SEQ ID NO 818 (designed binder)
chain: MGSWSIFKYHLADIKLLLEALGGSEAELAYFEFLIADFEFTLQDYKGKGNPEVEALRKEAAAIRDELQAYRHN
B37: SEQ ID NO 820 (designed binder)
chain: MGSWLYFKYNLAVIKHWLEALGGSEAELAIFEMSIADFEYELQWYKGKGNPEVEALRKEAAAIRDELQAYRHN
B38: SEQ ID NO 829 (designed binder)
chain: MGSWVLFKQELAWIKWLLEALGGSEAELAAFEEQIARFEHDLQKYKGKGNPEVEALRKEAAAIRDELQAYRHN
B39: SEQ ID NO 831 (designed binder)
chain: B33 chain with K5F, Y9S, D30Y, A33Y, S34Q, Q37E, K40F, Y41W, T44S
B40: SEQ ID NO 833 (designed binder)
chain: B33 chain with K5L, Y9S, E10D, D30E, A33E, Q37M, K40H, Y41W, T44E
B41: SEQ ID NO 832 (designed binder)
chain: B33 chain with K5L, Y9S, R17Y, D30E, A33W, S34N, Q37E, Y41N, T44K
B42: SEQ ID NO 834 (designed binder)
chain: MGSWLYFKSDLAWIKWRLEALGGSEAELADFEEAIAEFEQALQIYKGKGNPEVEALRKEAAAIRDELQAYRHN
B43: SEQ ID NO 830 (designed binder)
chain: B38 chain with L17Y, E33W, Q34E, R37A, H40Q, D41R, K44I
B44: SEQ ID NO 817 (designed binder)
chain: MGSWYEFDHRLMAISFRLVALGGSEAELAAFEKEIAAFESELQAYKGKGNPEVETLRRRAANIRHLLQAYRHN
B45: SEQ ID NO 841 (designed binder)
chain: MGSWYFFKSRLAYIKVYLEALGGSEAELAGFEWEIAHFEEWLQRYKGKGNPEVEALRKEAAAIRDELQAYRHN
B46: SEQ ID NO 842 (designed binder)
chain: B45 chain with F6I, R10E, Y13W, V16W, G30N, W33V, H37T, E40T, R44G
B47: SEQ ID NO 827 (designed binder)
chain: MGSWEHFKVELAGIKAYLEALGGSEAELALFEWAIADFESILQDYKGKGNPEVEALRKEAAAIRDELQAYRHN
B48: SEQ ID NO 828 (designed binder)
chain: B47 chain with E5I, H6Y, V9D, A16K, L30M, W33V, S40A, D44K
B49: SEQ ID NO 825 (designed binder)
chain: MGSWVLFKDYLADIKHYLEALGGSEAELANFEHLIANFEGDLQTYKGKGNPEVEALRKEAAAIRDELQAYRHN

Each binder was assayed against T1, AFP p26 (human, UniProt P02771 381-609) (assay: phage ELISA, A450 target/A450 IgG1-Fc).
T1 construct: The construct used is not described
T1 sequence: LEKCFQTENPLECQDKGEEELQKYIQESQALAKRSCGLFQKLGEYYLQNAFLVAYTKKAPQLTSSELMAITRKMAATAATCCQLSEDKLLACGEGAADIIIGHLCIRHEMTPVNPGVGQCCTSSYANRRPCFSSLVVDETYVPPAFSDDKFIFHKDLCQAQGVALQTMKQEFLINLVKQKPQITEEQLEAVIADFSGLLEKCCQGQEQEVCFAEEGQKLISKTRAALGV
In short: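 Using VCSM13 helper phage, phage were rescued in 96-well format from single phagemid colonies taken from panning output. Wells were coated with 1.3 microg/ml goat anti-human IgG1-Fc antibody and captured 5 nM recombinant human target or IgG1-Fc before 50 microl of 5×-diluted phage were added, with binding read at 450 nm via HRP-conjugated anti-M13 antibody. Each clone's ELISA ratio is its target-to-IgG1-Fc absorbance, averaged across all screened wells with that clone.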
B1 was tested, and the ELISA_avg was 19.2 ratio. B2 showed an ELISA_avg of 19.6 ratio. With B3 the ELISA_avg was 11.4 ratio. B4 gave an ELISA_avg of 15.2 ratio. Work on B5 yielded an ELISA_avg of 10.9 ratio. With B6 the ELISA_avg was 19 ratio. With B7 the ELISA_avg was 8.21 ratio. B8 was tested, and the ELISA_avg was 20.3 ratio. In the case of B9, the ELISA_avg is reported as 33.4 ratio. B10 gave an ELISA_avg of 28.5 ratio. With B11 the ELISA_avg was 26.9 ratio. Binder B12 has an ELISA_avg of 30.1 ratio. B13 showed an ELISA_avg of 30.8 ratio. Binder B14 has an ELISA_avg of 18.3 ratio. B15 gave an ELISA_avg of 28.7 ratio. Binder B16 has an ELISA_avg of 23.8 ratio. B17 showed an ELISA_avg of 19.4 ratio. B18 was tested, and the ELISA_avg was 11.7 ratio. B19 was tested, and the ELISA_avg was 27.4 ratio. Binder B20 has an ELISA_avg of 31.9 ratio. B21 showed an ELISA_avg of 16.9 ratio. B22 was tested, and the ELISA_avg was 25.3 ratio. Work on B23 yielded an ELISA_avg of 20.8 ratio. B24 showed an ELISA_avg of 31.5 ratio. B25 showed an ELISA_avg of 8.54 ratio. In the case of B26, the ELISA_avg is reported as 12.1 ratio. With B27 the ELISA_avg was 23.3 ratio. Work on B28 yielded an ELISA_avg of 22.9 ratio. In the case of B29, the ELISA_avg is reported as 20 ratio. B30 showed an ELISA_avg of 8 ratio. B31 was tested, and the ELISA_avg was 13.7 ratio. With B32 the ELISA_avg was 25.4 ratio. B33 gave an ELISA_avg of 23.4 ratio. B34 gave an ELISA_avg of 31.1 ratio. In the case of B35, the ELISA_avg is reported as 19.8 ratio. With B36 the ELISA_avg was 20.2 ratio. B37 was tested, and the ELISA_avg was 13.3 ratio. With B38 the ELISA_avg was 29.5 ratio. For B39, the ELISA_avg was 25.8 ratio. B40 gave an ELISA_avg of 33.3 ratio. With B41 the ELISA_avg was 25.7 ratio. Binder B42 has an ELISA_avg of 21.2 ratio. For B43, the ELISA_avg was 22.5 ratio. B44 gave an ELISA_avg of 20.1 ratio. Work on B45 yielded an ELISA_avg of 30.1 ratio. B46 was tested, and the ELISA_avg was 29.6 ratio. B47 showed an ELISA_avg of 18.1 ratio. B48 was tested, and the ELISA_avg was 15.9 ratio. B49 was tested, and the ELISA_avg was 13.8 ratio.
